Paper doi:10.1101/2022.05.21.492920

Biological target: SARS-CoV-2 S (Acro Biosystems), unlabelled (SARS-CoV-2) (UniProt P0DTC2)
Assay: SPR; Biacore, CM5 chip; S covalently immobilised at pH 4.0 (about 8500 RU); ERα, ACE2 or NRP1 injected at 1.56 to 200 nM; global fit to a single site binding model

| Substance | Kd [nM] |
| --- | --- |
| recombinant NRP1 (Acro Biosystems), analyte in SPR (from UniProt O14786 22-856) (natural protein) | 89.4 |
| ERα-full length (InVitrogen), analyte in SPR (from UniProt P03372 1-595) (receptor) | 9.7 |
